Target: RIa isoform of PKA (type I alpha regulatory subunit of cAMP-dependent protein kinase)
Experiment: binding in vitro, method not described

fold weaker binding than the Val variant: 3 fold
Substance: D-AKAP2 (AKAP10) Ile variant, isoleucine at position 646 of SEQ ID NO:2 (from UniProt O43572 507-662)
